Laboratory results taken from patent publication US9186389B2, “Nanoparticles containing pH-responsive peptide” (Taiho Pharmaceutical Co., Ltd., priority 2011, dated 2015).
* marks the point of attachment. Stearoyl = CCCCCCCCCCCCCCCCCC(=O)*

Assay: CD spectra under different pH conditions with predicted secondary structure
Assay type: physicochemical
Settings: peptide concentration 20 μM, PBS (−), pH 7.4, 6.5, 6.0, 5.5
Method: The peptide obtained in Production Example 1 alone and liposome 1 obtained as in Example 1 (each having a peptide concentration of 20 μM) were suspended in PBS (−) having different pH, and CD (circular dichroism) spectra were recorded on a J-720WI spectropolarimeter (produced by JASCO Corporation). Then, analysis software (see JWSSE-480; Molecular Membrane Biology, July, August 2007; 24 (4): 282-293) was used to predict the composition of the secondary structure in the spectra.
In FIG. 9 below, the “α-helix” represents an a helix structure; the “coil” represents a random coil structure (not forming a clear secondary structure); and “turn” represents a bending structure.

C17H35—C(O)-GGGGHGAHEHAGHEHAAGEHHAHE-NH2 (Stearoyl-GGGGHGAHEHAGHEHAAGEHHAHE-NH2; SMILES CCCCCCCCCCCCCCCCCC(=O)NCC(=O)NCC(=O)NCC(=O)NCC(=O)N[C@@H](Cc1c[nH]cn1)C(=O)NCC(=O)N[C@@H](C)C(=O)N[C@@H](Cc1c[nH]cn1)C(=O)N[C@@H](CCC(=O)O)C(=O)N[C@@H](Cc1c[nH]cn1)C(=O)N[C@@H](C)C(=O)NCC(=O)N[C@@H](Cc1c[nH]cn1)C(=O)N[C@@H](CCC(=O)O)C(=O)N[C@@H](Cc1c[nH]cn1)C(=O)N[C@@H](C)C(=O)N[C@@H](C)C(=O)NCC(=O)N[C@@H](CCC(=O)O)C(=O)N[C@@H](Cc1c[nH]cn1)C(=O)N[C@@H](Cc1c[nH]cn1)C(=O)N[C@@H](C)C(=O)N[C@@H](Cc1c[nH]cn1)C(=O)N[C@@H](CCC(=O)O)C(N)=O) [Compound 1]
structural change with pH (CD spectrum): a structural change does not occur unless the pH is lowered to 6.0
